Results reported in the supplement of paper PMC9732359.
± gives the uncertainty stated by the source.

Test: protein stability index of a GFP-peptide fusion (yeast GPS) (PSI 1-4); higher = more stable; sorted into four equal gates, so the index is relative within each strain
In short: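 The protein stability index combines read frequencies across sorting gates, each weighted by its gate number and then summed. To obtain those frequencies, a pooled yeast library of GFP fusions to tiled 17-residue yeast protein peptides, on a plasmid also expressing Cherry, was grown to mid-log phase in leucine-free medium. The cells were sorted into four equal gates by GFP/Cherry ratio before plasmid amplification by PCR and Illumina sequencing.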

Sequence	protein stability index (pdr5∆)	protein stability index (san1∆)	protein stability index (ubr1∆)	protein stability index (doa10∆)
MNGNGKPGIPRGNTKIH [SIR3]	2.83 ± 0.23	3.32 ± 0.094	3.25 ± 0.18	
NLTIHFGGEKGKRIREN [FAS1]	3.01 ± 0.18	3.05 ± 0.092	3.31 ± 0.075	3.39 ± 0.1
FKVYEPLLLVGLDKFSN [RPS16A]	1.96 ± 0.055	1.85 ± 0.074	2.14 ± 0.043	1.72 ± 0.058
NTSSKRQKKKPTSAQKS [IRR1]	2.59 ± 0.08	2.5 ± 0.061	2.87 ± 0.07	2.71 ± 0.084
HDISKTETSNEDEDEDD [SNU114]	3.03 ± 0.057	2.98 ± 0.039	3.08 ± 0.037	3.02 ± 0.058
DPNEVKYLYLRAVGGEV [RPL12A]	1.89 ± 0.12	1.98 ± 0.18	1.53 ± 0.039	1.77 ± 0.073
DLSLLGYCDDIAAMVAQ [SIR2]	2.08 ± 0.043	2.82 ± 0.052	2.24 ± 0.041	2.56 ± 0.06
RLDILDPALLRPGRIDR [RPT6]		2.65 ± 0.12		2.79 ± 0.22
RDDGKRELLVEGYGLRD [RPO31]	2.56 ± 0.072	2.72 ± 0.077	2.74 ± 0.068	2.4 ± 0.079
SSNSQQSTPQPDDMVEI [ITC1]	2.74 ± 0.059	2.58 ± 0.054	2.87 ± 0.047	3.09 ± 0.064
SYAVSPYAQKPLQGIFH [QCR8]	2.4 ± 0.061	2.54 ± 0.054	2.6 ± 0.052	2.51 ± 0.082
KSMNKSAINQYNRRQDK [SNF2]	2.63 ± 0.082	2.44 ± 0.058	2.48 ± 0.083	2.26 ± 0.075
IKKKKKKSKNGTISKTG [SRP14]	3.17 ± 0.15	3.11 ± 0.1	3.54 ± 0.11	3.16 ± 0.19
LIFGTIASKMSLAPEAD [RPT3]	2.78 ± 0.064	2.75 ± 0.041	2.65 ± 0.038	2.66 ± 0.044
SPIVNVLEDVYRCFAQL [RRI2]	3.19 ± 0.17	2.9 ± 0.14	3.09 ± 0.083	2.53 ± 0.18
SSVNEDTFLPPPPPPPS [PRP8]	2.72 ± 0.04	2.44 ± 0.038	2.46 ± 0.037	2.73 ± 0.041
DTSKALLNVSVNITKFS [SKI6]	2.57 ± 0.068	2.72 ± 0.073	2.42 ± 0.072	2.27 ± 0.08
SQHGQGNNPSWVNNPKK [YDL088C/ASM4]	3.52 ± 0.16			3.2 ± 0.14
VVESVGAEVDEARINEL [RPP2B]	3.21 ± 0.091	3.35 ± 0.095	3.47 ± 0.15	3.23 ± 0.11
DVAYLLKSESATSQYLK [YGL172W/NUP49]	3.21 ± 0.094	2.94 ± 0.1	3.03 ± 0.11	2.25 ± 0.14
AENDVIEATDLGNIASS [BRR2]	3.17 ± 0.086	3.19 ± 0.064	3.27 ± 0.056	3.05 ± 0.075
FVQLCEMGYLIQISKLH [RPC82]	1.95 ± 0.064	1.77 ± 0.1	1.96 ± 0.058	1.74 ± 0.05
TKFKVRGSSSLYTLVIN [RPL38]	1.32 ± 0.09	1.55 ± 0.13	2.13 ± 0.09	2.08 ± 0.074
SEYDRGVSTFSPEGRLF [PUP2]	3.28 ± 0.1	3.32 ± 0.096	3.31 ± 0.065	3.43 ± 0.1
DIPGVRFKVVKVSGVSL [RPS23A]	1.11 ± 0.1	1.25 ± 0.29	1.06 ± 0.079	1.62 ± 0.084
SVLLQQLLTPGSKISSN [YGL172W/NUP49]	2.83 ± 0.089	3.09 ± 0.099	2.56 ± 0.14	2.46 ± 0.093
NIDINNEDENIQLIKIL [YJL041W/NSP1]	2.56 ± 0.071	2.99 ± 0.049	2.7 ± 0.042	2.52 ± 0.055

Sequence	protein stability index (pdr5∆)	protein stability index (san1∆)	protein stability index (ubr1∆)	protein stability index (doa10∆)
IAYSDSQSSNANICLTF [SIN4]	2.7 ± 0.065	2.38 ± 0.081	2.89 ± 0.069	2.74 ± 0.1
SAAMSIDKLSDVVMKAT [PRP8]	2.6 ± 0.046	2.45 ± 0.047	2.37 ± 0.042	2.46 ± 0.048
FLRTQFLKLYVLVKWTR [RGR1]	1.95 ± 0.065	1.63 ± 0.11	1.56 ± 0.06	1.46 ± 0.084
PANNHQLGLQTVIRGNS [SMX2]	3.19 ± 0.086	2.91 ± 0.074	2.85 ± 0.053	3.02 ± 0.077
LDRIPMHSYFIFKDLVT [COB]	1.91 ± 0.12	1.88 ± 0.12	1.67 ± 0.069	1.92 ± 0.11
TKKISNFNSSLHKRQQF [YJL039C/NUP192]	2.79 ± 0.12	1.4 ± 0.18	1.6 ± 0.11	2.73 ± 0.13
YKLGKVKKVQLGKKGVP [RPS4A]	2.98 ± 0.16	3.19 ± 0.049	2.94 ± 0.11	2.85 ± 0.14
YSKIPNILSNKPGQNNR [RRP6]	2.37 ± 0.074	1.99 ± 0.16	1.77 ± 0.047	2.16 ± 0.087
LNQINGLNNDFLFQNIN [GRR1]	2.13 ± 0.088	2.01 ± 0.11	1.8 ± 0.086	1.6 ± 0.1
RLLAKDAMIAQRSKKIQ [DIS3]	1.92 ± 0.091	1.41 ± 0.072	1.59 ± 0.069	1.24 ± 0.1
LKIHQSHLVVPYCPIAS [YMR129W/POM152]	1.29 ± 0.061	1.24 ± 0.12	1.28 ± 0.035	1.25 ± 0.063
KTEDPKGGIIASVGDIL [YML031W/NDC1]	2.62 ± 0.051	2.43 ± 0.046	2.12 ± 0.04	2.57 ± 0.067
MPNIELYLKVIPMDFIR [SSN2]	2.14 ± 0.076	1.95 ± 0.082	2.54 ± 0.079	2.22 ± 0.072
VDVNNKFIALCEQQPSQ [SIN4]	2.96 ± 0.05	3.18 ± 0.052	3 ± 0.059	2.82 ± 0.051
SINATALAFGYVKSLHK [SIN4]	2.92 ± 0.12	3.1 ± 0.22	3.08 ± 0.08	3.51 ± 0.21
LLKHPFKAIHGSQLRLS [YCS4]	1.62 ± 0.043	1.64 ± 0.072	1.83 ± 0.025	1.67 ± 0.046
LQEKISTELNNKQYELF [SWI1]	2.74 ± 0.072	2.52 ± 0.062	2.77 ± 0.059	2.51 ± 0.077
SDPVCLFVCNKDPDVPL [POP3]	2.35 ± 0.075	2.31 ± 0.084	2.52 ± 0.081	1.91 ± 0.053
AAGNASSLPPGEILLPD [SNF5]	3.2 ± 0.063	3.1 ± 0.06	3.3 ± 0.053	3.15 ± 0.077
DIVSIDIEEPQLDLLDD [MTW1]	3.17 ± 0.097	3.25 ± 0.05	3.16 ± 0.048	2.66 ± 0.098
KQYLSASFSLKNGDKPH [RPL6A]	1.93 ± 0.045	2.43 ± 0.058	2.96 ± 0.029	2.34 ± 0.057
KKIFGTGKRLAKKVARR [RPS24A]	3.34 ± 0.057	3.31 ± 0.039	3.42 ± 0.039	3.52 ± 0.064
SNIPRGSVIQTHIAESA [MCD1]	2.88 ± 0.084	2.62 ± 0.09	2.91 ± 0.051	2.81 ± 0.1
KNGLGLNFSTTAPANTT [MED2]	2.38 ± 0.047	2.15 ± 0.072	2.06 ± 0.042	2.16 ± 0.07
KKDVEKELPDKVEKVVK [SNF2]	3.47 ± 0.14	3.39 ± 0.099	3.34 ± 0.089	3.52 ± 0.23
KIKPYVRSFSKALDELK [LRP1]	2.95 ± 0.037	2.35 ± 0.047	2.68 ± 0.027	2.52 ± 0.04
